From patent US20030049211A1 (published 2003)

B1: humanized #23-57-137-1 antibody having L-chain version "s" (antibody, V domains shown)
VH: QVQLVESGGGVVQPGRSLRLSCAASGFTFSSYGMSWVRQAPGKGLEWVATISSGGSYTYYPDSVKGRFTISRDNSKNTLYLQMNSLRAEDTAVYYCARQTTMTYFAYWGQGTLVTVSS
VL: QLVLTQSPSASASLGASVKLTCTLSSQHSTYTIEWYQQQPEKGPKYVMDLKQDGSHSTGDGIPDRFSGSSSGAERYLTISSLQSEDEADYICGVGDTIKEQFVYVFGGGTKLTVLG
notes: Humanized H-chain version a with human Cgamma1; human lambda C-region; COS-7 expressed; also called hMBC1HcDNA/pCOS1 and hMBC1Lsλ/pCOS1
B2: humanized #23-57-137-1 antibody having L-chain version "l" (antibody, V domains shown)
VH: QVQLVESGGGVVQPGRSLRLSCAASGFTFSSYGMSWVRQAPGKGLEWVATISSGGSYTYYPDSVKGRFTISRDNSKNTLYLQMNSLRAEDTAVYYCARQTTMTYFAYWGQGTLVTVSS
VL: QLVLTQSPSASASLGASVKLTCTLSSQHSTYTIEWYQQQPEKGPKYVMDLKQDGSHSTGDGIPDRFSGSSSGAERYLTISSLQSEDEADYYCGVGDTIKEQFVYVFGGGTKLTVLG
notes: Humanized H-chain version a with human Cgamma1; human lambda C-region; COS-7 expressed; also called hMBC1HcDNA/pCOS1 and hMBC1Llλ/pCOS1
B3: humanized #23-57-137-1 antibody having L-chain version "m" (antibody, V domains shown)
VH: QVQLVESGGGVVQPGRSLRLSCAASGFTFSSYGMSWVRQAPGKGLEWVATISSGGSYTYYPDSVKGRFTISRDNSKNTLYLQMNSLRAEDTAVYYCARQTTMTYFAYWGQGTLVTVSS
VL: QLVLTQSPSASASLGASVKLTCTLSSQHSTYTIEWYQQQPEKGPRYLMDLKQDGSHSTGDGIPDRFSGSSSGAERYLTISSLQSEDEADYYCGVGDTIKEQFVYVFGGGTKLTVLG
notes: Humanized H-chain version a with human Cgamma1; human lambda C-region; COS-7 expressed; also called hMBC1HcDNA/pCOS1 and hMBC1Lmλ/pCOS1
B4: humanized #23-57-137-1 antibody having L-chain version "j" (antibody, V domains shown)
VH: QVQLVESGGGVVQPGRSLRLSCAASGFTFSSYGMSWVRQAPGKGLEWVATISSGGSYTYYPDSVKGRFTISRDNSKNTLYLQMNSLRAEDTAVYYCARQTTMTYFAYWGQGTLVTVSS
VL: QLVLTQSPSASASLGASVKLTCTLSSQHSTYTIEWYQQQPEKGPKYLMDLKQDGSHSTGDGIPDRFSGSSSGAERYLTISSLQSEDEADYYCGVGDTIKEQFVYVFGGGTKLTVLG
notes: Humanized H-chain version a with human Cgamma1; human lambda C-region; COS-7 expressed; also called hMBC1HcDNA/pCOS1 and hMBC1Ljλ/pCOS1
B5: humanized #23-57-137-1 antibody having L-chain version "q" (antibody, V domains shown)
VH: QVQLVESGGGVVQPGRSLRLSCAASGFTFSSYGMSWVRQAPGKGLEWVATISSGGSYTYYPDSVKGRFTISRDNSKNTLYLQMNSLRAEDTAVYYCARQTTMTYFAYWGQGTLVTVSS
VL: QLVLTQSPSASASLGASVKLTCTLSSQHSTYTIEWYQQQPEKGPKYLMDLKQDGSHSTGDGIPDRFSGSSSGAERYLTISSLQSEDEADYICGVGDTIKEQFVYVFGGGTKLTVLG
notes: Humanized H-chain version a with human Cgamma1; human lambda C-region; COS-7 expressed (also CHO); also called hMBC1HcDNA/pCOS1 and hMBC1Lqλ/pCOS1
B6: humanized #23-57-137-1 antibody having L-chain version "o" (antibody, V domains shown)
VH: QVQLVESGGGVVQPGRSLRLSCAASGFTFSSYGMSWVRQAPGKGLEWVATISSGGSYTYYPDSVKGRFTISRDNSKNTLYLQMNSLRAEDTAVYYCARQTTMTYFAYWGQGTLVTVSS
VL: QLVLTQSPSASASLGASVKLTCTLSSQHSTYTIEWYQQQPEKGPRYVMDLKQDGSHSTGDGIPDRFSGSSSGAERYLTISSLQSEDEADYYCGVGDTIKEQFVYVFGGGTKLTVLG
notes: Humanized H-chain version a with human Cgamma1; human lambda C-region; COS-7 expressed; also called hMBC1HcDNA/pCOS1 and hMBC1Loλ/pCOS1
B7: humanized #23-57-137-1 antibody having L-chain version "r" (antibody, V domains shown)
VH: QVQLVESGGGVVQPGRSLRLSCAASGFTFSSYGMSWVRQAPGKGLEWVATISSGGSYTYYPDSVKGRFTISRDNSKNTLYLQMNSLRAEDTAVYYCARQTTMTYFAYWGQGTLVTVSS
VL: QLVLTQSPSASASLGASVKLTCTLSSQHSTYTIEWYQQQPEKGPRYLMDLKQDGSHSTGDGIPDRFSGSSSGAERYLTISSLQSEDEADYICGVGDTIKEQFVYVFGGGTKLTVLG
notes: Humanized H-chain version a with human Cgamma1; human lambda C-region; COS-7 expressed (also CHO); also called hMBC1HcDNA/pCOS1 and hMBC1Lrλ/pCOS1
B8: antibody having both a humanized H-chain version "a" and a chimeric L-chain (antibody, V domains shown)
VH: QVQLVESGGGVVQPGRSLRLSCAASGFTFSSYGMSWVRQAPGKGLEWVATISSGGSYTYYPDSVKGRFTISRDNSKNTLYLQMNSLRAEDTAVYYCARQTTMTYFAYWGQGTLVTVSS
VL: QLVLTQSSSASFSLGASAKLTCTLSSQHSTYTIEWYQQQPLKPPKYVMDLKQDGSHSTGDGIPDRFSGSSSGADRYLSISNIQPEDEAMYICGVGDTIKEQFVYVFGGGTKVTVLG
notes: Human Cgamma1 H-chain C-region
B9: humanized #23-57-137-1 antibody having L-chain version "t" (antibody, V domains shown)
VH: QVQLVESGGGVVQPGRSLRLSCAASGFTFSSYGMSWVRQAPGKGLEWVATISSGGSYTYYPDSVKGRFTISRDNSKNTLYLQMNSLRAEDTAVYYCARQTTMTYFAYWGQGTLVTVSS
VL: QLVLTQSPSASASLGASVKLTCTLSSQHSTYTIEWYQQQPEKGPRYVMDLKQDGSHSTGDGIPDRFSGSSSGAERYLTISSLQSEDEADYICGVGDTIKEQFVYVFGGGTKLTVLG
notes: Humanized H-chain version a with human Cgamma1; human lambda C-region; COS-7 expressed; also called hMBC1HcDNA/pCOS1 and hMBC1Ltλ/pCOS1
B10: human FR1/mouse FR2,3,4 hybrid antibody, L-chain hmmMBC1L(λ) (antibody, V domains shown)
VH: QVQLVESGGGVVQPGRSLRLSCAASGFTFSSYGMSWVRQAPGKGLEWVATISSGGSYTYYPDSVKGRFTISRDNSKNTLYLQMNSLRAEDTAVYYCARQTTMTYFAYWGQGTLVTVSS
VL: QLVLTQSPSASASLGASVKLTCTLSSQHSTYTIEWYQQQPLKPPKYVMDLKQDGSHSTGDGIPDRFSGSSSGADRYLSISNIQPEDEAMYICGVGDTIKEQFVYVFGGGTKVTVL
notes: H-chain from hMBC1HcDNA/pCOS1 (humanized version a, human Cgamma1); human lambda C-region; also called FR1/FR2 hybrid antibody
B11: mouse FR1,2/human FR3,4 hybrid antibody, L-chain m/hMBC1Laλ (antibody, V domains shown)
VH: QVQLVESGGGVVQPGRSLRLSCAASGFTFSSYGMSWVRQAPGKGLEWVATISSGGSYTYYPDSVKGRFTISRDNSKNTLYLQMNSLRAEDTAVYYCARQTTMTYFAYWGQGTLVTVSS
VL: QLVLTQSSSASFSLGASAKLTCTLSSQHSTYTIEWYQQQPLKPPKYVMDLKQDGSHSTGDGIPDRFSGSSSGAERYLTISSLQSEDEADYYCGVGDTIKEQFVYVFGGGTKLTVL
notes: H-chain from hMBC1HcDNA/pCOS1 (humanized version a, human Cgamma1); human lambda C-region
B12: chimeric #23-57-137-1 antibody with L-chain kappa chain C-region (antibody, V domains shown)
VH: EVQLVESGGDLVKPGGSLKLSCAASGFTFSSYGMSWIRQTPDKRLEWVATISSGGSYTYYPDSVKGRFTISRDNAKNTLYLQMSSLKSEDTAMFYCARQTTMTYFAYWGQGTLVTVSA
VL: QLVLTQSSSASFSLGASAKLTCTLSSQHSTYTIEWYQQQPLKPPKYVMDLKQDGSHSTGDGIPDRFSGSSSGADRYLSISNIQPEDEAMYICGVGDTIKEQFVYVFGGGTKVTVLG
notes: Mouse V-regions joined to human H-chain C-region Cgamma1 and human kappa C-region (from plasmid HEF-PM1k-gk); expressed in COS-7 cells; also called chimeric antibody; MBC1HcDNA/pCOS1 and MBC1L(κ)/neo
B13: chimeric #23-57-137-1 antibody with L-chain lambda chain C-region (antibody, V domains shown)
VH: EVQLVESGGDLVKPGGSLKLSCAASGFTFSSYGMSWIRQTPDKRLEWVATISSGGSYTYYPDSVKGRFTISRDNAKNTLYLQMSSLKSEDTAMFYCARQTTMTYFAYWGQGTLVTVSA
VL: QLVLTQSSSASFSLGASAKLTCTLSSQHSTYTIEWYQQQPLKPPKYVMDLKQDGSHSTGDGIPDRFSGSSSGADRYLSISNIQPEDEAMYICGVGDTIKEQFVYVFGGGTKVTVLG
notes: Mouse V-regions joined to human H-chain C-region Cgamma1 and human lambda C-region (isotype Mcg+Ke+Oz-, EMBL X57819); expressed in COS-7 cells; also called chimeric antibody; MBC1HcDNA/pCOS1 and MBC1L(λ)/neo
B14: mouse monoclonal antibody #23-57-137-1 against human PTHrP (1-34) (antibody, V domains shown)
VH: EVQLVESGGDLVKPGGSLKLSCAASGFTFSSYGMSWIRQTPDKRLEWVATISSGGSYTYYPDSVKGRFTISRDNAKNTLYLQMSSLKSEDTAMFYCARQTTMTYFAYWGQGTLVTVSA
VL: QLVLTQSSSASFSLGASAKLTCTLSSQHSTYTIEWYQQQPLKPPKYVMDLKQDGSHSTGDGIPDRFSGSSSGADRYLSISNIQPEDEAMYICGVGDTIKEQFVYVFGGGTKVTVLG
notes: Mouse antibody from hybridoma culture supernatant; mouse lambda L-chain; H-chain cloned with an MHC-G1 primer

Molecular target: T1, human PTHrP (1-34) (human)
T1 construct: Synthetic peptide (Peninsula; Peptide Research Institute), coated on ELISA plates at 1 ug/ml; added at 1 ng/ml final in the cAMP assay; also called parathyroid hormone related peptide (1-34)
Assay: ELISA, plate coated with human PTHrP (1-34)
Method: An ELISA plate for determining antigen-binding ability was prepared as follows. Each well of a 96-well ELISA plate (Maxisorp, NUNC) was coated with 100 μl of a coating buffer containing 1 μg/ml of human PTHrP (1-34) and then blocked with 200 μl of a dilution buffer. Subsequently, each well was added with each of the serial dilutions of the COS-7 cell culture supernatant in which each of the hybrid antibodies and humanized antibodies was expressed, or added with each of the serial dilutions of each of the hybrid antibodies and humanized antibodies in a purified form. The plate was incubated at room temperature and washed with PBS-Tween 20. Subsequently, each well was added with 100 μl of alkaline phosphatase-conjugated goat anti-human IgG antibody (TAGO). The plate was incubated at room temperature and washed with PBS-Tween 20. Subsequently, each well was added with 1 mg/ml of a substrate solution (“Sigma 104”, p-nitrophenylphosphoric acid, SIGMA). The solution was measured on its absorbance at 405 nm using Microplate Reader (Bio Rad).

Binding result, binds:
B1
B2
B3
B4
B5
B6
B7
B8
B9
B10
B11
B12
B13

Molecular target: T1, human PTHrP (1-34)
Assay: solid phase RIA of hybridoma culture supernatant
Source text: The hybridomas thus obtained was suspended into RPMI-1640 medium containing 15% FCS supplemented with OPI-supplement (Sigma), followed by unification of the hybridomas by limiting dilution method.

Binding result, binds:
B14
